Biological target: T1, human thyroid hormone receptor α (TRα-1), intact (human, UniProt P10827-2)
T1 sequence: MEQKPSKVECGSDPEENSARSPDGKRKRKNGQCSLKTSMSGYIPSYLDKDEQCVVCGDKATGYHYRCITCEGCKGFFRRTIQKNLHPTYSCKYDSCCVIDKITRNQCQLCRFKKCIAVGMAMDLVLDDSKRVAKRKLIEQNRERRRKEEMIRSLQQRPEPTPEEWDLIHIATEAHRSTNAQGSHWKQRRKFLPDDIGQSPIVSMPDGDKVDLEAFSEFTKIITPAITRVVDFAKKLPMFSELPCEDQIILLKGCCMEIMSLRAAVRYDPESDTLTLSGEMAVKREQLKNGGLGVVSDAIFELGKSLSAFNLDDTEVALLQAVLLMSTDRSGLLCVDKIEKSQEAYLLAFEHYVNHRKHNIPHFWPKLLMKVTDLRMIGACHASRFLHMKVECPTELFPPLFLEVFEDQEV
Test: Far Western: 35S-labelled TRα on blotted TR-TRAP complex (TRAP100 is one of the other TRAPs)
Experimental: For coimmunoprecipitation (7), 2 μl of anti-FLAG M2 affinity gel (Kodak) and 3 μl of ^35S-labeled input proteins were used. For Far Western analyses, 500 ng of purified TR-TRAP complex was resolved by SDS-PAGE and transferred onto a nitrocellulose membrane. The blots were probed with in vitro translated, ^35S-labeled human TRα-1 or TRα-1 C-terminus (residues 122–410) in the presence and absence of 10^-7 M T_3.
Figure 7A: FIG. 7. Ligand-dependent interaction between TRα and TRAP220. (A) Far Western. 500 ng of purified TR-TRAP complex was separated by SDS-PAGE (8% gel), blotted and probed with ^35S-labeled full length (TR) and C-terminal (TRα-C) hTRα in the presence and absence of 10^-7 M […] (T_3). The arrow head indicates the position of the TRAP220 band. (B) Co-immunoprecipitation of TR-TRAP220 from in vitro translated products. The indicated combinations of ^35S-labeled TRAP220, TRAP100 and FLAG-TRα were incubated in the presence and absence of […] (T_3), and subjected to immunoprecipitation with anti-FLAG antibodies (M2 agarose) that recognizes only FLAG-tagged TRα. Figure 7B: Figure 8A: FIG. 8. Nuclear hormone receptor interactions with […] and TRAP100. (A) Ligand-dependent interactions of GST-TRAP220/1 and 2 with ^35S-labeled TRα. […]

binding result: no binding
B1: Thyroid Receptor-associated protein (TRAP) 100 (other)
chain: MKVVNLKQAILQAWKERWSDYQWAINMKKFFPKGATWDILNLADALLEQAMIGPSPNPLILSYLKYAISSQMVSYSSVLTAISKFDDFSRDLCVQALLDIMDMFCDRLSCHGKAEECIGLCRALLSALHWLLRCTAASAERLREGLEAGTPAAGEKQLAMCLQRLEKTLSSTKNRALLHIAKLEEASSWTAIEHSLLKLGEILANLSNPQLRSQAEQCGTLIRSIPTMLSVHAEQMHKTGFPTVHAVILLEGTMNLTGETQSLVEQLTMVKRMQHIPTPLFVLEIWKACFVGLIESPEGTEELKWTAFTFLKIPQVLVKLKKYSHGDKDFTEDVNCAFEFLLKLTPLLDKADQRCNCDCTNFLLQECGKQGLLSEASVNNLMAKRKADREHAPQQKSGENANIQPNIQLILRAEPTVTNILKTMDADHSKSPEGLLGVLGHMLSGKSLDLLLAAAAATGKLKSFARKFINLNEFTTYGSEESTKPASVRALLFDISFLMLCHVAQTYGSEVILSESRTGAEVPFFETWMQTCMPEEGKILNPDHPCFRPDSTKVESLVALLNNSSEMKLVQMKWHEACLSISAAILEILNAWENGVLAFESIQKITDNIKGKVCSLAVCAVAWLVAHVRMLGLDEREKSLQMIRQLAGPLFSENTLQFYNERVVIMNSILERMCADVLQQTATQIKFPSTGVDTMPYWNLLPPKRPIKEVLTDIFAKVLEKGWVDSRSIHIFDTLLHMGGVYWFCNNLIKELLKETRKEHTLRAVELLYSIFCLDMQQVTLVLLGHILPGLLTDSSKWHSLMDPPGTALAKLAVWCALSSYSSHKGQASTRQKKRHREDIEDYISLFPLDDVQPSKLMRLLSSNEDDANILSSPTDRSMSSSLSASQLHTVNMRDPLNRVLANLFLLISSILGSRTAGPHTQFVQWFMEECVDCLEQGGRGSVLQFMPFTTVSELVKVSAMSSPKVVLAITDLSLPLGRQVAAKAIAAL
